The target in this experiment is ligated complex of zebrafish PlexinC1_(cyto) and human Rap1B with the 24-residue linker and the LPETGG sortase recognition motif (human | zebrafish) (UniProt P61224). The experiment in a line: AUC; sedimentation velocity, with 2 mM AlFx; 0.5, 4, 8 and 20 μM; 10 mM Tris pH 8, 50 mM NaCl, 2 mM TCEP, 2 mM MgCl2; 20°C, 42,000 rpm; c(s) analysis; monomer to dimer.

One may read the stoichiometry N as a count of units in the complex or per binding partner. As for “ligated complex of zebrafish PlexinC1_(cyto) and human Rap1B with the 24-residue linker and the LPETGG sortase recognition motif (from UniProt P61224 2-166; A0A8M3ARP5 552-1147)”, the stoichiometry N worked out at 2.

For the origin of these results see PMC3787391.
